No end group written: not given here. *: point of attachment. Fmoc = O=C(OCC1c2ccccc2-c2ccccc21)*
Molecular target: the molecule itself
Assay: transmission electron microscopy + atomic force microscopy; hydrogel of 10 mg/mL Fmoc-FRGDF formed by pH switch to pH 7.4, PBS; dried, negatively stained (TEM) or on HOPG (AFM)

B1: Fmoc-FRGDF (peptide)
peptide: Fmoc-FRGDF
notes: the Fmoc group is kept on the N-terminus; Low molecular weight gelator; also called Fluorenylmethoxycarbonyl (Fmoc) pentapeptide; SAP; source: synthetic peptide (solid phase Fmoc peptide synthesis)
B1: binds.

Reference: paper PMC5500548, “Facile Control over the Supramolecular Ordering of Self-assembled Peptide Scaffolds by Simultaneous Assembly with a Polysacharride” (Scientific Reports, 2017)
